Reference: patent US20050272077
Where a chain is given by its changes, count along the chain named.

Assays:
[1] = target: T1, GST-ATF2 fusion protein (residues 1-505), P15336
T1 chain: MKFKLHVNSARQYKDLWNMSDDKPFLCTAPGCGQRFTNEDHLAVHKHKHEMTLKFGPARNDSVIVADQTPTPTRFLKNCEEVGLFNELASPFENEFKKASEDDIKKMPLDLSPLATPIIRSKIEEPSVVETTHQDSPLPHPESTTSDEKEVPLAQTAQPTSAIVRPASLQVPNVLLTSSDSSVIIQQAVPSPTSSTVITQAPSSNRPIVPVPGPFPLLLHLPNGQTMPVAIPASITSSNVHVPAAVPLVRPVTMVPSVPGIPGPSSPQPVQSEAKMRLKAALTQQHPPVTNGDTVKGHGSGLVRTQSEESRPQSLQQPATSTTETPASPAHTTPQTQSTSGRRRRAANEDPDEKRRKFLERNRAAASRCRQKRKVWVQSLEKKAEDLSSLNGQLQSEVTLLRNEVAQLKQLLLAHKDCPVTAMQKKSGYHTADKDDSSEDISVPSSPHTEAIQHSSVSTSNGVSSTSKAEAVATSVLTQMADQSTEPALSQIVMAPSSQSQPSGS

[2] = target: T2, mutated ATF2 (Ala^69.71), P15336
T2 chain: T1 chain with T69A, T71A

[3] = target: GST-ATF2 fusion protein (residues 1-109, activation domain) [GST: P08515]
[4] = target: T3, GST-ATF2 fusion protein (residues 1-349), P15336
T3 chain: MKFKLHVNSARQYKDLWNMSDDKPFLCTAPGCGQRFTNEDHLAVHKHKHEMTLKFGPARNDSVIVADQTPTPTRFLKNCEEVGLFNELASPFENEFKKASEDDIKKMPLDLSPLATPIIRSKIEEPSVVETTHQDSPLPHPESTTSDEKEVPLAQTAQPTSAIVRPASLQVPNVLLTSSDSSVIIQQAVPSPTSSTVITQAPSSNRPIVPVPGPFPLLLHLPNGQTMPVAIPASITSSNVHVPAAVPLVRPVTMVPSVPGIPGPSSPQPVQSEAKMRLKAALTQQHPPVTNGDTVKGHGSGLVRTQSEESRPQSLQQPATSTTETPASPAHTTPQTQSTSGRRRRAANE

[5] = target: T4, GST-ATF2 fusion protein (residues 20-109), P15336
T4 chain: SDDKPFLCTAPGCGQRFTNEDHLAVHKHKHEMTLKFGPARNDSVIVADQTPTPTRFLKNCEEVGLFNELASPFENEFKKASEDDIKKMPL

[6] = target: T5, GST-ATF2 fusion protein (residues 40-109), P15336
T5 chain: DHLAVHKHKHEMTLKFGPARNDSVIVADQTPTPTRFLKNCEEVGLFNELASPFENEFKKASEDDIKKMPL

[7] = target: T6, GST-ATF2 fusion protein (residues 60-109), P15336
T6 chain: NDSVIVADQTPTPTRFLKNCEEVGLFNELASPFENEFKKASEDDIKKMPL

[8] = target: GST-ERK2 [GST: P08515]
GST-ERK2 [GST: P08515], sequence (P08515 whole entry, looked up): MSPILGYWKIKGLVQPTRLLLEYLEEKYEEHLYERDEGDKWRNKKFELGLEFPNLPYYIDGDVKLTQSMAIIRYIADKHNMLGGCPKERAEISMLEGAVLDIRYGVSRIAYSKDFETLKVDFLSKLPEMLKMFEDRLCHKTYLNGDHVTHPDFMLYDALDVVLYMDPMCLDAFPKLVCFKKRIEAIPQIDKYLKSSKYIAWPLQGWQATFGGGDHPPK

[9] = target: GST-JNK1, P45983
[10] = target: GST-p38 MAP kinase (wild-type, TGY), Q16539
GST-p38 MAP kinase (wild-type, TGY), Q16539, sequence (Q16539 whole entry): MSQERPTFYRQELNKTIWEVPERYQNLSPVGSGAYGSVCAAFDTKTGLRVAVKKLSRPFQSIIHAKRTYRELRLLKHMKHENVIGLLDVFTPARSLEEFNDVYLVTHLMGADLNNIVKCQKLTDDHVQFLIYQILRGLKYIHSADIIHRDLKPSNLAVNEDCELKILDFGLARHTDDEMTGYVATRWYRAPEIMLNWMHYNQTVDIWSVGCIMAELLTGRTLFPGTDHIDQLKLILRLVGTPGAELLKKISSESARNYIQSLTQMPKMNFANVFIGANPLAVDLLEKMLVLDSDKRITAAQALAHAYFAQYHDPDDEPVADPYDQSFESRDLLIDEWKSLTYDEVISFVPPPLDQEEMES

[11] = target: mutated GST-p38 MAP kinase (AGF), Q16539
mutated GST-p38 MAP kinase (AGF), Q16539, sequence (Q16539 whole entry, looked up, change not shown): as the sequence (Q16539 whole entry) above

B1: JNK1 from UV-irradiated cells (protein)
chain: MSRSKRDNNFYSVEIGDSTFTVLKRYQNLKPIGSGAQGIVCAAYDAILERNVAIKKLSRPFQNQTHAKRAYRELVLMKCVNHKNIIGLLNVFTPQKSLEEFQDVYIVMELMDANLCQVIQMELDHERMSYLLYQMLCGIKHLHSAGIIHRDLKPSNIVVKSDCTLKILDFGLARTAGTSFMMTPYVVTRYYRAPEVILGMGYKENVDLWSVGCIMGEMVCHKILFPGRDYIDQWNKVIEQLGTPCPEFMKKLQPTVRTYVENRPKYAGYSFEKLFPDVLFPADSEHNKLKASQARDLLSKMLVIDASKRISVDEALQHPYINVWYDPSEAEAPPPKIPDKQLDEREHTIEEWKELIYKEVMDLEERTKNGVIRGQPSPLAQVQQ
With B1 the “in-gel protein kinase assay with GST-ATF2 (residues 1-505) polymerized in the gel” value [1] was 46 kD and 55 kD protein kinases that phosphorylate ATF2 in extracts prepared from UV-irradiated cells. The 46 kD and 55 kD protein kinases were identified as JNK1 and JNK2, respectively and the “phosphorylation of ATF2 by JNK1 (phosphopeptide mapping and mutational analysis)” value [2] was “Phosphorylation of mutated ATF2 was not observed”.

B2: Flag epitope-tagged JNK1 (protein)
chain: SRSKRDNNFYSVEIGDSTFTVLKRYQNLKPIGSGAQGIVCAAYDAILERNVAIKKLSRPFQNQTHAKRAYRELVLMKCVNHKNIIGLLNVFTPQKSLEEFQDVYIVMELMDANLCQVIQMELDHERMSYLLYQMLCGIKHLHSAGIIHRDLKPSNIVVKSDCTLKILDFGLARTAGTSFMMTPYVVTRYYRAPEVILGMGYKENVDLWSVGCIMGEMVCHKILFPGRDYIDQWNKVIEQLGTPCPEFMKKLQPTVRTYVENRPKYAGYSFEKLFPDVLFPADSEHNKLKASQARDLLSKMLVIDASKRISVDEALQHPYINVWYDPSEAEAPPPKIPDKQLDEREHTIEEWKELIYKEVMDLEERTKNGVIRGQPSPLAQVQQ
B2 was tested, and the “phosphorylation of GST-ATF2 (residues 1 to 109) (immunocomplex kinase assay, autoradiography)” value [3] was “JNK1-transfected cells, but not mock-transfected cells, phosphorylated ATF2. JNK1 phosphorylation of ATF2 was greater in cells exposed to UV radiation”, the “phosphorylation of the GST-ATF2 fusion protein (immunocomplex kinase assay)” value (from here on “phosphorylation … (immunocomplex kinase assay)”) [3] was “JNK1 phosphorylates GST-ATF2 fusion proteins containing residues 1-505, 1-349, 1-109, 20-109, and 40-109, but not 60-109” and the “phosphorylation … (immunocomplex kinase assay)” value [4] was “JNK1 phosphorylates GST-ATF2 fusion proteins containing residues 1-505, 1-349, 1-109, 20-109, and 40-109, but not 60-109”. The “phosphorylation … (immunocomplex kinase assay)” value [1] was “JNK1 phosphorylates GST-ATF2 fusion proteins containing residues 1-505, 1-349, 1-109, 20-109, and 40-109, but not 60-109”, the “phosphorylation … (immunocomplex kinase assay)” value [5] was “JNK1 phosphorylates GST-ATF2 fusion proteins containing residues 1-505, 1-349, 1-109, 20-109, and 40-109, but not 60-109” and the “phosphorylation … (immunocomplex kinase assay)” value [6] was “JNK1 phosphorylates GST-ATF2 fusion proteins containing residues 1-505, 1-349, 1-109, 20-109, and 40-109, but not 60-109”. The “phosphorylation … (immunocomplex kinase assay)” value [7] was “JNK1 phosphorylates GST-ATF2 fusion proteins containing residues 1-505, 1-349, 1-109, 20-109, and 40-109, but not 60-109”.

B3: GST-MKK3 (protein)
chain: MSKPPAPNPTPPRNLDSRTFITIGDRMFEVEADDLVTISELGRGAYGVVEKVRHAQSGTIMAVKRIRATVNSQEQKRLLMDLDINMRTVDCFYTVTFYGALFREGDVWICMELMDTSLDKFYRKVLDKNMTIPEDILGEIAVSIVRALEHLHSKLSVIHRDVKPSNVLINKEGHVKMCDFGISGYLVDSVAKTMDAGCKPYMAPERINPELNQKGYNVKSDVWSLGITMIEMAILRFPYESWGTPFQQLKQVVEEPSPQLPADRFSPEFVDFTAQCLRKNPAERMSYLELMEHPFFTLHKTKKTDIAAFVKKILGEDS
With B3 the “phosphorylation of the substrate protein (in vitro kinase assay, [γ-32P]ATP, SDS-PAGE, autoradiography)” value [8] was “MKK3 phosphorylated p38 MAP kinase, but not JNK1 or ERK2”, the “phosphorylation of the substrate protein (in vitro kinase assay, [γ-32P]ATP, SDS-PAGE, autoradiography)” value [9] was “MKK3 phosphorylated p38 MAP kinase, but not JNK1 or ERK2” and the “phosphorylation of the substrate protein (in vitro kinase assay, SDS-PAGE, autoradiography)” value [10] was “Only phosphorylation of wild-type p38 was observed”. The “phosphorylation of the substrate protein (in vitro kinase assay, [γ-32P]ATP, SDS-PAGE, autoradiography)” value [10] was “MKK3 phosphorylated p38 MAP kinase, but not JNK1 or ERK2” and the “phosphorylation of the substrate protein (in vitro kinase assay, SDS-PAGE, autoradiography)” value [11] was “Only phosphorylation of wild-type p38 was observed”.
